Reference: article doi:10.1101/2023.01.03.522599, “Crystal structure of a mammalian CMTM6 and its interaction model with PD-L1” (bioRxiv, 2023)

Biological target: T1, human PD-L1, BRIL fused to the C-terminus, C-terminally His-tagged (human, UniProt Q9NZQ7 19-290)
T1 construct: PD-L1, human; probably ED, TMD and CD together; also called hPD-L1; source: purified; not shown: BRIL, C-terminal, kept; His-tag, C-terminal, kept
Experiment: pull-down; purified C-terminally His-tagged hPD-L1 variants (BRIL fused) used to pull down purified His-tag free bCMTM6 variants (BRIL fused); examined by SDS-PAGE
Details: both partners purified

T1 sequence (Q9NZQ7 19-290): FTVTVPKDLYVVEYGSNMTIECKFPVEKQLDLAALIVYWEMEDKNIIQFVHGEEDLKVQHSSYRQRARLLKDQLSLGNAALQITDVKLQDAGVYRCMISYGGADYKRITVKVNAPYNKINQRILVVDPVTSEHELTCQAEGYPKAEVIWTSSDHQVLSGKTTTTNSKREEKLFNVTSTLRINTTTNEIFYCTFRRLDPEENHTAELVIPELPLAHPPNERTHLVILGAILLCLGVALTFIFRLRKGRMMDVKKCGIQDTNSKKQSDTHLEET

- binding result: binds
B1: bovine CMTM6 protein (CKLF-like MARVEL transmembrane domain-containing protein 6), BRIL fused to the C-terminus (natural protein, UniProt Q3ZBE8 1-182, looked up)
chain: MENGQVYRATTEAHPGPGIGPRSGLAAYFTLSRLTGFRRLKLLELVLSLLAFICEEVVSQCTLCGGLYFFEFVSCSAFLLSLLILVVYCTPVYDRVDPAKVKSSDFFITLGTGLVFFVASLTFTLTHDNTIAEIAAIVFGMLASLTYLAEFSFMLREKLKEPRPRKGEATMRREHLTEPLNA
notes: CMTM6, bovine; the crystal structure holds residues 33-165, and 32 amino-terminal and 17 carboxy-terminal residues were not modeled; Whether BRIL was on the crystallized sample is not clear from 'bCMTM6(-BRIL)'; also called bCMTM6; bCMTM6(-BRIL); source: purified (size-exclusion column); not shown: BRIL, C-terminal, kept
